Measured values as given in US20160136234A1.

What was measured:
Assay in all cases: cell-based or functional assay
TAO2 (h) (human) = molecular target: T1, TAO2 (h) (human) (UniProt Q9UL54)
T1 sequence (looked up): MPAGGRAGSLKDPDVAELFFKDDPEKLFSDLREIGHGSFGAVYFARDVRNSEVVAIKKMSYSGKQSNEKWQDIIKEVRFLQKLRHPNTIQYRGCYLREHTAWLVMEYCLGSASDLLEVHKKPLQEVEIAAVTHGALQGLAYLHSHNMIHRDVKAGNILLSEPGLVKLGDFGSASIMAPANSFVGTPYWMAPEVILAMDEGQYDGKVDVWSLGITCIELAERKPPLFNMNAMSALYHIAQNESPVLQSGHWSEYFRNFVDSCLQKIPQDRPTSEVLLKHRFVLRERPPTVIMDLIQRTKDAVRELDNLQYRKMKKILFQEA

IRR (h) (human) = IRR (h) (human) (UniProt P14616)
IRR (h) (human), sequence (P14616 944-1297 limits assumed): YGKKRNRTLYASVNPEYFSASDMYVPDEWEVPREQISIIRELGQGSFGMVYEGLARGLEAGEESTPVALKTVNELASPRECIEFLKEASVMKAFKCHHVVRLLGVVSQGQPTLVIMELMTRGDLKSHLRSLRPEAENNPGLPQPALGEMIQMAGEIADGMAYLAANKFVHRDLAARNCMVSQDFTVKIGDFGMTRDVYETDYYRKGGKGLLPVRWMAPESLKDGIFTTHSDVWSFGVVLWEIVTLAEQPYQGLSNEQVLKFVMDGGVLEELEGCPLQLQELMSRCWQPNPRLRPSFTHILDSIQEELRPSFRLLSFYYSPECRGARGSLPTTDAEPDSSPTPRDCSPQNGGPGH

Ret (h) (human) = molecular target: T2, Ret (h) (human) (UniProt P07949)
T2 sequence (looked up): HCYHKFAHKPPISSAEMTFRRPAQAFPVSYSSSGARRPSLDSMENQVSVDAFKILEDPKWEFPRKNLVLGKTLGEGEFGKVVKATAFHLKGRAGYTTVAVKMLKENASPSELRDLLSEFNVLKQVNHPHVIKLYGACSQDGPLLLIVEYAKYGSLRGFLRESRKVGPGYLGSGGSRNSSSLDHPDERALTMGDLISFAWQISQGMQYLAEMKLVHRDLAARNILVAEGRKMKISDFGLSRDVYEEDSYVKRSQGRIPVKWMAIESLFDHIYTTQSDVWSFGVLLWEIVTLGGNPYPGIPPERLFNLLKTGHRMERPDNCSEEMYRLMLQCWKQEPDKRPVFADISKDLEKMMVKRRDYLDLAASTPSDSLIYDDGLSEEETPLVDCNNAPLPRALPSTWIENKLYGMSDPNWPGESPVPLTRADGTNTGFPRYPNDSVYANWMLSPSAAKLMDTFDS

HIPK2 (h) (human) = HIPK2 (h) (human) (UniProt Q9H2X6)
PKCδ (h) (human) = PKCδ (h) (human) (UniProt Q05655)
EphA8 (h) (human) = molecular target: T3, EphA8 (h) (human) (UniProt P29322)
T3 sequence (looked up): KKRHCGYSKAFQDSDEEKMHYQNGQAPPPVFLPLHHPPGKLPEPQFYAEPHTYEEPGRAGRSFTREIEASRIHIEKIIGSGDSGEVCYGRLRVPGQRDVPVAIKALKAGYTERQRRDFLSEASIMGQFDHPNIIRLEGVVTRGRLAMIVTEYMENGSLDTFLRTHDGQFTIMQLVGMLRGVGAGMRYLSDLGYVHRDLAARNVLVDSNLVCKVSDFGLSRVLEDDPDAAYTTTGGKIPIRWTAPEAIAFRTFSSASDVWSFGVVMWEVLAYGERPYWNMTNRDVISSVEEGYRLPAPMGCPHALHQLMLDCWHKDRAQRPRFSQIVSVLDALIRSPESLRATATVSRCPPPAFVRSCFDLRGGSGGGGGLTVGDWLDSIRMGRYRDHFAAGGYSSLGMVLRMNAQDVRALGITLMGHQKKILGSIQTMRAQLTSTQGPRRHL

TAO3 (h) (human) = molecular target: T4, TAO3 (h) (human) (UniProt Q9H2K8)
T4 sequence (looked up): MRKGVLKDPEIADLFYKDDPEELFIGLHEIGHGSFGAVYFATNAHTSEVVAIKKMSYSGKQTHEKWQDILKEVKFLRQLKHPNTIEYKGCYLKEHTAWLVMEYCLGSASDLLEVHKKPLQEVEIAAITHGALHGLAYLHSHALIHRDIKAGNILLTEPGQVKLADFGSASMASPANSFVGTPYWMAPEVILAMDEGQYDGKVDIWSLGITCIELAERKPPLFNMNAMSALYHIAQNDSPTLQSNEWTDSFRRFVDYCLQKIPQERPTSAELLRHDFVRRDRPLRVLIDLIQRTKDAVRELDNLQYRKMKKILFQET

PKCβII (h) (human) = PKCβII (h) (human) (UniProt P05771)
MAPK2 (h) (human) = MAPK2 (h) (human) (UniProt P28482)
MAPK2 (h) (human), sequence (P28482 whole entry): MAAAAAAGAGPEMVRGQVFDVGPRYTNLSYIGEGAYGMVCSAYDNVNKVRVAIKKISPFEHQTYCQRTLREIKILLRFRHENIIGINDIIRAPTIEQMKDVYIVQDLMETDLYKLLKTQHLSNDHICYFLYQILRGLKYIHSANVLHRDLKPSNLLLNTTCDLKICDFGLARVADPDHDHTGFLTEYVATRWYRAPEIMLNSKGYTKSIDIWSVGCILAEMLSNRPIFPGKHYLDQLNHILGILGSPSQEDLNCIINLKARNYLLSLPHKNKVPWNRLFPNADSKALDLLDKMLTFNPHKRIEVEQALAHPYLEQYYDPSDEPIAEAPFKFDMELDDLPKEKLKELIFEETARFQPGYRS

GCK (h) (human) = molecular target: T5, GCK (h) (human) (UniProt Q12851)
T5 sequence (looked up): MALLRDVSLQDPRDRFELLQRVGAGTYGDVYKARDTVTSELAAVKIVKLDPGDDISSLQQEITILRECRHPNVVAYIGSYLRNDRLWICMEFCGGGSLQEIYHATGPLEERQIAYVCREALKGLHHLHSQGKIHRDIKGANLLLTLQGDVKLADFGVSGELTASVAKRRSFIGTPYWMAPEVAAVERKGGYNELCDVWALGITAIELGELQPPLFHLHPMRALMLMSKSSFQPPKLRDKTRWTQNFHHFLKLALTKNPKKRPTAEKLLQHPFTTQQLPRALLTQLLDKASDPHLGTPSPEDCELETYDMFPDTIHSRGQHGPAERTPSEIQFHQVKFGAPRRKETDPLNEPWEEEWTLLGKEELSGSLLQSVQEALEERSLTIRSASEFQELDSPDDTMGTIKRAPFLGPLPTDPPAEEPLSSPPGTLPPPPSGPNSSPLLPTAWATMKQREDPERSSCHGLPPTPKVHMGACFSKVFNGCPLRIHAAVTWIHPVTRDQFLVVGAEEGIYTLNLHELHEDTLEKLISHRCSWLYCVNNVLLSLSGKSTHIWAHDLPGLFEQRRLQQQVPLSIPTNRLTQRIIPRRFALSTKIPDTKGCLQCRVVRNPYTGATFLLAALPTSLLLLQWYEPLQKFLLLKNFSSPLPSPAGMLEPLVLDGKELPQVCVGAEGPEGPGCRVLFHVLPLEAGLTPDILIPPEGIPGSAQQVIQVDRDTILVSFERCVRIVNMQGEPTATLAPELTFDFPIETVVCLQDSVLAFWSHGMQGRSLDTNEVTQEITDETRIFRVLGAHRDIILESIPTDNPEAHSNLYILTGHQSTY

- % activity at 100 µM (TAO2 (h) (human)): 70%
- % activity at 100 µM (IRR (h) (human)): 8%
- % activity at 100 µM (Ret (h) (human)): 140%
- % activity at 100 µM (HIPK2 (h) (human)): 73%
- % activity at 100 µM (PKCδ (h) (human)): 101%
- % activity at 100 µM (EphA8 (h) (human)): 93%
- % activity at 100 µM (TAO3 (h) (human)): 77%
- % activity at 100 µM (PKCβII (h) (human)): 82%
- % activity at 100 µM (MAPK2 (h) (human)): 98%
- % activity at 100 µM (GCK (h) (human)): 70%
Substance: MMI-0300 (peptide)
